Legend:
[1] = test system: AncSZ; experiment: phosphorylation enrichment, bacterial display (enrichment ratio); higher = better substrate or ligand; peptides without Tyr show the background
[2] = molecular target: EPHB1 (UniProt P54762); experiment: as above
[3] = molecular target: EPHB2 (UniProt P29323); experiment: as above
[4] = molecular target: FGFR1 (UniProt P11362); experiment: as above
[5] = molecular target: FGFR3 (UniProt P22607); experiment: as above
[6] = test system: Fer (mouse); experiment: as above
[7] = molecular target: Fes (UniProt P07332); experiment: as above
[8] = molecular target: Fyn (UniProt P06241); experiment: as above
[9] = molecular target: Hck (UniProt P08631); experiment: as above
[10] = molecular target: Jak2 (UniProt O60674); experiment: as above
[11] = molecular target: MERTK (UniProt Q12866); experiment: as above
[12] = test system: c-Abl (mouse); experiment: as above
[13] = test system: c-Src; experiment: as above
[14] = molecular target: Grb2 SH2 (UniProt P62993); experiment: SH2 binding enrichment of the phosphorylated peptide, bacterial display (enrichment ratio); higher = better substrate or ligand; peptides without Tyr show the background
[15] = molecular target: SHP2-C SH2; experiment: as above
[16] = molecular target: c-Src SH2; experiment: as above
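Wherever SH2 binding enrichment of the phosphorylated peptide, bacterial display is given: peptide library displayed on the E. coli surface as eCPX fusions, selected cells deep-sequenced, score is each peptide's frequency after selection divided by its frequency in the input.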
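Wherever phosphorylation enrichment, bacterial display is given: 11-residue human phosphosite peptides and single-mutation variants displayed on the E. coli surface, counted by deep sequencing, each peptide's frequency after selection divided by its frequency in the unselected input library; frequency after pTyr selection over input frequency; kinase dosed for 20-30% of maximal phosphorylation in three min.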

Chain of Fes (P07332 whole entry, looked up): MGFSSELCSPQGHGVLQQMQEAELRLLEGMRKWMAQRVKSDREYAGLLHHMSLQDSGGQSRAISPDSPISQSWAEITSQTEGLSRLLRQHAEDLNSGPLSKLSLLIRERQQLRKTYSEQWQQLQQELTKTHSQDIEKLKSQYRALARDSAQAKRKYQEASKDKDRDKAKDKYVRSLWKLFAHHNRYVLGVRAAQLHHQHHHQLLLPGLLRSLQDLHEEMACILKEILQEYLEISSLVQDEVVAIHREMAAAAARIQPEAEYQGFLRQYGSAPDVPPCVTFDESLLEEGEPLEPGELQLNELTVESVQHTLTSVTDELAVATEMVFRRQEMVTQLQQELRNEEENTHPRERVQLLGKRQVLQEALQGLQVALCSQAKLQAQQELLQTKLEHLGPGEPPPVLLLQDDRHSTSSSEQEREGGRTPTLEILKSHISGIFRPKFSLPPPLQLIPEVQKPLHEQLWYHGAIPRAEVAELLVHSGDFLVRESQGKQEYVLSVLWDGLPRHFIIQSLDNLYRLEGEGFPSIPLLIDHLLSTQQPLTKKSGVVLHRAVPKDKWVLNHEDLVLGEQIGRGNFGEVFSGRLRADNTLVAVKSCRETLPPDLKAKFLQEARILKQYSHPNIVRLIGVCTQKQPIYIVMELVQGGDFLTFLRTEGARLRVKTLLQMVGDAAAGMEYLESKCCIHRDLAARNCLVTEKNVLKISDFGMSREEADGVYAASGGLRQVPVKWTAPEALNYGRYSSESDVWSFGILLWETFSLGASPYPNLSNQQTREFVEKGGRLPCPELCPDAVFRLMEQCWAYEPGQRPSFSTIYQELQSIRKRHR
Chain of Hck (P08631 whole entry, looked up): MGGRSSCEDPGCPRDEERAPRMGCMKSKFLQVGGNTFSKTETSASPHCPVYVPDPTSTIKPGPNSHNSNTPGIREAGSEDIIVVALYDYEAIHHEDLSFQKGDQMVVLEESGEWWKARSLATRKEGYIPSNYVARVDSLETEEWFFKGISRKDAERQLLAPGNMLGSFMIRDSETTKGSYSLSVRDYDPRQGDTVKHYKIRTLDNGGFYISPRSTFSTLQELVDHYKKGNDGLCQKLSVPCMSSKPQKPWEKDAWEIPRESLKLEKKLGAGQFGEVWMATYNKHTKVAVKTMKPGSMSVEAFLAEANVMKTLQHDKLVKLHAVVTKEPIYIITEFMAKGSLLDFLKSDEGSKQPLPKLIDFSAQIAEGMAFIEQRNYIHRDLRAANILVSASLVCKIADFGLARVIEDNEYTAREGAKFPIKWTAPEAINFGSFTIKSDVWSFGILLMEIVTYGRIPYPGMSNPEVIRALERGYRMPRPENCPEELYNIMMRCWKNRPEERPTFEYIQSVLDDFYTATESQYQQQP
Chain of FGFR1 (P11362 whole entry, looked up): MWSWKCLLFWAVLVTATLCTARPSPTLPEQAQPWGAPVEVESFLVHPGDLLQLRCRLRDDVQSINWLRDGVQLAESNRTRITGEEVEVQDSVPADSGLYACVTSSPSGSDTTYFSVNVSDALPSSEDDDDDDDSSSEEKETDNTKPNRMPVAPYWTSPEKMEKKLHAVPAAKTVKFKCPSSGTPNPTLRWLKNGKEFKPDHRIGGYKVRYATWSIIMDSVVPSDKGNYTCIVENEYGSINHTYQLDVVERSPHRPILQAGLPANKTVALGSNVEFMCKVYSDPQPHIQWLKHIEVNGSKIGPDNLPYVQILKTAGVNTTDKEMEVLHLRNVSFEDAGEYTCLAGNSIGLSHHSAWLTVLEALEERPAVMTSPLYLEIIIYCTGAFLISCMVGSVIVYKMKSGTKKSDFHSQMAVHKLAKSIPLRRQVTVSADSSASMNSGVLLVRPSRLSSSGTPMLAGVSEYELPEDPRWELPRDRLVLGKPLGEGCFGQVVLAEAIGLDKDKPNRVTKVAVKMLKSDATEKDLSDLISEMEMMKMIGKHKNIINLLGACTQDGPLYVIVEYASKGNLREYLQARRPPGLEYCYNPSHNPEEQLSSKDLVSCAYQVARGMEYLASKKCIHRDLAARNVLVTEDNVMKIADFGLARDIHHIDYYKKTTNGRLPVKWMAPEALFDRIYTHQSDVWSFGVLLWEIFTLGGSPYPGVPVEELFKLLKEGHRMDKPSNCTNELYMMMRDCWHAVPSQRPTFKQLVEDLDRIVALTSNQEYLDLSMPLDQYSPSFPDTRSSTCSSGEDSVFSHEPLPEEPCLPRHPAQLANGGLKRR
Chain of FGFR3 (P22607 whole entry, looked up): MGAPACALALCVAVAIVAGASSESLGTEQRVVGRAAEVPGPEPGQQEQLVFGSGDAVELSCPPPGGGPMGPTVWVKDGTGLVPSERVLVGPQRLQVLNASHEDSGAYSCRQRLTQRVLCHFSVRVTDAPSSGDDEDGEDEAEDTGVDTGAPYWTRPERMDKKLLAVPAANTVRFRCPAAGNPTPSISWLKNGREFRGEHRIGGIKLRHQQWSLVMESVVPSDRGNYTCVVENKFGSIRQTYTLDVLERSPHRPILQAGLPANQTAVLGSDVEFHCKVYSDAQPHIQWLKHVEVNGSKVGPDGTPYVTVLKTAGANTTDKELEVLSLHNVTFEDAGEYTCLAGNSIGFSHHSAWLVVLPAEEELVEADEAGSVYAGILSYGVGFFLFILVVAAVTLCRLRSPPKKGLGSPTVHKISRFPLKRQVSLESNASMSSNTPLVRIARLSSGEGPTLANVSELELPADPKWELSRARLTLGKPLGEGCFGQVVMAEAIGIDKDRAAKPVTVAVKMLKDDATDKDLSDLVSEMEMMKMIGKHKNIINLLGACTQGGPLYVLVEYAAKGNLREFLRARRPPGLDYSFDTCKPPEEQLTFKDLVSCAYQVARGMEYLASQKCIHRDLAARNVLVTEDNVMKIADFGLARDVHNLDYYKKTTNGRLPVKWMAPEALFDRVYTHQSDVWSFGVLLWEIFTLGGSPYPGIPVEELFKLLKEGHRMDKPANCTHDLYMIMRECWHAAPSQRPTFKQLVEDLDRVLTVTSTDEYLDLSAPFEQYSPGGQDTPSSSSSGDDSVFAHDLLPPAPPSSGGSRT
Chain of Fyn (P06241 whole entry, looked up): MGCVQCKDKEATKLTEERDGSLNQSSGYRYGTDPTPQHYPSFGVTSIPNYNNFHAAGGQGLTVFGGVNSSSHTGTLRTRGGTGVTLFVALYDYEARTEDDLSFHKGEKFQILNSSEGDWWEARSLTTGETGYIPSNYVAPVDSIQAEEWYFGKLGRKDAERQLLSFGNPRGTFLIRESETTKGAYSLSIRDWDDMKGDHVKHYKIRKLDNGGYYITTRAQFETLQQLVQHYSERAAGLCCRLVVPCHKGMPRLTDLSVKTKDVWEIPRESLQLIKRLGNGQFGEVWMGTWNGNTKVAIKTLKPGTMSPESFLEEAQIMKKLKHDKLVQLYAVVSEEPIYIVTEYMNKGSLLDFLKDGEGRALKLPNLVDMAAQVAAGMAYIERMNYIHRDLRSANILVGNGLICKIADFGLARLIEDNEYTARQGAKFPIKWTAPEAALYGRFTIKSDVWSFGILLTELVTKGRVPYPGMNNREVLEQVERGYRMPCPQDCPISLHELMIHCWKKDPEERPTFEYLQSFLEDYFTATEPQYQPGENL
Chain of EPHB2 (P29323 whole entry, looked up): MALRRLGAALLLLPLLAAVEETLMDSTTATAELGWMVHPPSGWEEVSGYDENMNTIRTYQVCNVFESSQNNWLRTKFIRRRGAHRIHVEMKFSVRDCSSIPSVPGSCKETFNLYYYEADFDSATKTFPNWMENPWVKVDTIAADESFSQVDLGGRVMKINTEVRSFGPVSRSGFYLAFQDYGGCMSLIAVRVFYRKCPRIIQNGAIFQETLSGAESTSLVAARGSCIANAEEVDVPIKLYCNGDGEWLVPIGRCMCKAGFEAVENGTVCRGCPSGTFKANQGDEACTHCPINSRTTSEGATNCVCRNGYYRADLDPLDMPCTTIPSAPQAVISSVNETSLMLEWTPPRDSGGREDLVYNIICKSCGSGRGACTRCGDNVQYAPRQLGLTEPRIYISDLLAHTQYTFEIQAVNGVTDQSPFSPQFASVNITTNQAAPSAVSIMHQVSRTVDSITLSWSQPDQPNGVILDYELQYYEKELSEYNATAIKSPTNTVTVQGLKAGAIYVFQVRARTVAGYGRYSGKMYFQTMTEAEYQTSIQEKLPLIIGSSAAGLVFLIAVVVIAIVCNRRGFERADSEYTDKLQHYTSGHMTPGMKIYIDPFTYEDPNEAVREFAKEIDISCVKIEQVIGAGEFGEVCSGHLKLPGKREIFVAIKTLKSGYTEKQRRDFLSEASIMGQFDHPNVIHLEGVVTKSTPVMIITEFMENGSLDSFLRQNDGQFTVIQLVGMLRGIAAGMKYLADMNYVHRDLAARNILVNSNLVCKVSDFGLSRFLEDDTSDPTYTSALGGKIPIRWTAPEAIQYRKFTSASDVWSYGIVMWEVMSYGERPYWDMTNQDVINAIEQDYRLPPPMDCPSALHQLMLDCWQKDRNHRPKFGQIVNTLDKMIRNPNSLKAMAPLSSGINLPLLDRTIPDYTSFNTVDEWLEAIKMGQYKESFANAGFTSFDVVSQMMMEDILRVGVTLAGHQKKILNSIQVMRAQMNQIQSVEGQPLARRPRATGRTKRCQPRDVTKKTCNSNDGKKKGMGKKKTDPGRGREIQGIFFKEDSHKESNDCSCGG

Sequence	SH2 binding enrichment [14]	SH2 binding enrichment [15]	SH2 binding enrichment [16]	phosphorylation enrichment [1]	phosphorylation enrichment [2]	phosphorylation enrichment [3]	phosphorylation enrichment [4]	phosphorylation enrichment [5]	phosphorylation enrichment [6]	phosphorylation enrichment [7]	phosphorylation enrichment [8]	phosphorylation enrichment [9]	phosphorylation enrichment [10]	phosphorylation enrichment [11]	phosphorylation enrichment [12]	phosphorylation enrichment [13]
IRKAEYPFSSE [ATP2C1_Y452]	0.89	0.598	0.471	0.595	0.414	0.341	0.392	0.424	0.366	0.758	0.363	0.404	0.594	0.341	0.454	0.365
ADKAAYLQSLN [MYH2_Y389]	0.86	0.8	0.553	0.779	0.458	0.561	0.506	0.572	0.539	0.789	0.536	0.516	0.777	0.476	0.546	0.45
YLAAIYPTVGQ [NF1_Y2508_T2507I]	0.747	0.986	1.39	0.94	0.511	0.514	1.16	0.88	0.58	0.89	0.513	0.57	0.671	1.37	0.597	0.528
AGRSGYDNREI [BCL2_Y9_T7S]	0.731	0.757	0.494	0.574	0.386	0.409	0.366	0.49	0.32	0.635	0.426	0.441	0.52	0.366	0.551	0.394
MPAVTYTLAMR [MEGF10_Y895_P897L]	0.758	3.33	0.726	1.08	0.516	0.588	0.453	0.73	0.488	1.03	0.53	0.514	0.845	0.437	0.724	0.503
ANFAKYGNPNE [BCHE_Y505]	0.784	0.6	0.382	0.561	0.384	0.331	0.462	0.426	0.406	0.549	0.307	0.362	0.372	0.361	0.357	0.461
GRFCGYKSKHG [EPHA3_Y570]	1.32	1.49	1.43	0.469	0.506	0.368	0.374	0.638	0.426	0.664	0.321	0.377	0.726	0.376	0.587	0.363
FTRNYYVWAVL [CYBA_Y88_R90W]	1.04	1.11	0.581	1.6	3.79	1.55	6.92	5.58	1.42	1.7	0.858	0.75	1.84	3.54	12	0.506
IGGHAYGDQYR [IDH1_Y135_R132G]	0.776	0.548	0.416	0.52	0.405	0.368	0.364	0.382	0.448	0.59	0.382	0.428	0.431	0.357	0.386	0.36
QTLTDYDTRFF [CSNK2A3_Y131_I133T_YF]	0.862	0.852	0.708	0.909	0.506	0.823	0.666	0.912	0.684	1.09	0.702	1.06	0.832	0.473	0.725	0.573
PESIMYRKFTT [NTRK3_Y744]	1.05	0.494	0.6	3.03	0.534	0.552	0.384	0.667	0.485	0.789	0.67	0.517	0.666	0.616	0.777	0.488
TFINKYQGKLF [HGD_Y249_V245F]	0.726	0.78	0.629	0.566	0.391	0.346	0.387	0.457	0.358	0.589	0.414	0.368	0.457	0.631	0.52	0.347
SFPSTYRYERG [INPPL1_Y661_P659S]	0.987	0.728	0.633	0.484	0.453	0.397	0.39	0.449	0.418	0.813	0.439	0.392	0.767	0.455	0.52	0.463
RFMVGYEMLAQ [GALT_Y339_K334R]	0.836	0.617	2.32	1.38	0.939	0.811	0.875	0.873	0.677	1.41	0.719	0.751	1.4	0.635	0.849	0.83
HVEAVYIDIAD [PITPNA_Y140]	0.931	0.647	0.541	1.39	2.52	1.27	5.13	2.96	2.23	1.18	1.14	0.837	0.922	0.708	0.831	1.87
RLLRGYDQFAY [HLA-C_Y137_S140F]	1.47	1.14	1.65	0.794	0.422	0.433	0.49	0.617	0.502	0.848	0.395	0.49	0.567	0.433	0.775	0.514
KWRGQYDVANK [BTK_Y425_I429N]	1.08	0.957	1.2	0.533	0.381	0.396	0.439	0.57	0.446	0.705	0.359	0.445	0.6	0.387	0.594	0.376
VSNFNYFYHRE [KCNA1_Y413]	1.07	1.9	0.795	1.01	0.614	0.549	1.66	1.86	0.404	0.999	0.433	0.501	0.943	0.47	0.874	0.512
GVSFIYTIDGS [DCX_Y105_R102S_YF]	0.88	0.725	0.584	1.43	0.694	0.532	0.496	0.753	0.491	1.31	2.18	0.976	1.54	0.552	0.927	1.98
VEDQFYRVDCF [FHL1_Y208_C209R_YF]	0.875	0.601	0.515	1.16	0.692	0.587	0.522	0.831	0.559	1.34	0.693	0.551	1.24	0.557	0.863	1.1

More lines, main results first:

SH2 binding enrichment [14]	SH2 binding enrichment [15]	SH2 binding enrichment [16]	Sequence	phosphorylation enrichment [1]	phosphorylation enrichment [2]	phosphorylation enrichment [3]	phosphorylation enrichment [4]	phosphorylation enrichment [5]	phosphorylation enrichment [6]	phosphorylation enrichment [7]	phosphorylation enrichment [8]	phosphorylation enrichment [9]	phosphorylation enrichment [10]	phosphorylation enrichment [11]	phosphorylation enrichment [12]	phosphorylation enrichment [13]
0.934	0.783	0.671	LSFSEYASVQV [SIRPA_Y496_P491L]	2.44	7.83	8.7	2.22	2.1	5.53	1.64	3.8	2.93	1.1	0.671	4.03	2.14
0.988	1.03	0.602	NPQKSYFICLF [WAS_Y83_R86C_YF]	1.1	0.525	0.523	0.632	0.757	0.496	1.27	0.39	0.448	1.13	0.43	1	0.504
0.783	1.04	0.962	TENAGYYFQVS	1.39	0.78	0.713	2	1.76	0.604	1.52	0.456	0.563	1.99	1.29	0.983	0.509
0.905	0.719	0.45	DKITQYVEEVR [STX2_Y49_K54R]	0.999	0.739	0.551	0.477	0.609	0.486	1.08	0.427	0.517	0.872	0.411	0.605	0.417
0.705	0.423	0.431	FNDSAYNQQLI [ZPLD1_Y198_T197A_YF]	0.641	0.489	0.383	0.338	0.451	0.326	0.672	0.393	0.455	0.5	0.297	0.485	0.421
0.854	0.867	0.844	SVVVPYEPPEI [TP53_Y220_V225I]	1.15	0.552	0.62	0.44	0.665	0.4	1.25	0.408	0.616	0.967	0.37	0.8	0.447
0.979	0.872	2.15	VNTMLYEKFTY [TEK_Y1108_T1106M]	1.23	8.2	6.33	0.856	0.902	10.4	1.03	6.38	7.18	0.811	7.49	1.82	5.53
2.15	2.29	1.76	ALKKPYGVLFK [RPF2_Y59_YF]	0.765	0.469	0.502	0.404	0.518	0.403	0.722	0.562	0.632	0.73	0.528	0.712	0.777
0.64	1.1	0.78	LQRCKYSHMEP [TEX45_Y434]	1.21	0.513	0.876	0.663	0.957	0.582	1.35	0.375	0.672	1.5	0.614	1.16	0.982
0.704	0.655	0.471	TTEHIYGDKFF [UBA7_Y524_N527K]	0.722	0.468	0.477	0.597	0.563	0.502	0.762	4.92	2.15	0.648	0.459	0.728	4.65
0.673	1.03	0.441	KSIEEYLKLVG [RASAL2_Y381]	0.772	0.468	0.581	0.528	0.48	0.409	0.962	0.404	0.51	0.775	0.372	0.521	0.438
1.06	0.934	0.618	CDFKKYGKGLR [ZNF445_Y433_Y428C_YF]	0.647	0.409	0.413	0.432	0.549	0.31	0.808	0.479	0.357	0.718	0.396	0.64	0.441
0.84	0.783	0.469	QTEAPYRFIYM [PTPN11_Y511_Q510P]	1.41	0.93	1.25	7.24	5.25	11	1.6	0.697	0.984	1.22	1.4	1.15	1.93

Source: the supplement of paper PMC10065799, “High-throughput profiling of sequence recognition by tyrosine kinases and SH2 domains using bacterial peptide display” (eLife, 2023)
